# Reference: the nanobody polyreactivity screen of Harvey et al. (2022)
# Test: yeast display, Sf9 membrane polyspecificity reagent, FACS + sequencing; frameworks hold sequencing errors
# Outline: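 Galactose induction of a Saccharomyces cerevisiae BJ5465 synthetic nanobody display library ran 36–48 hours. The cells were then stained for 1 hour at 4 °C with 10% biotinylated, detergent-solubilized Sf9 membrane reagent, pulled down on streptavidin microbeads and FACS-sorted into low and high (top ~1%) gates on expression and reagent-binding fluorescence. Labels for polyreactivity follow the gate of origin.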
row,Sequence,polyreactivity (PSR sort gate)
1,QVQLVESGGGLVQAGGSLRLSCAASGTTFAYNAMGWYIQAPGKEREMVAAISTSGGSTNYADSVKGRYTISRDNAMNTVYLQMNSLKPEDTAVYYCAARPKTPSITRYGYWGQGTQVTVSS,high polyreactivity
2,QVQLVESGGGLVQAGGSLRLSCAASGTTFCSYAMGRYRQAPGKEREFVAAISSSDDSTYYADSVKGRFTISRDYAKNTVYLQMNSLKPEDTAVYYCAAAQRVNHVWYDYWGQGTQVTVSS,low polyreactivity
3,QVQLVESGGGLVQAGGSLRLSCAASGTTFGGNSMGWYRQAPGKERELVAAIDSGGSTYADSVKGRFTISRDNAKNTVYLQMNSLKPEDTAVYYCAAVWEFVHYWRFDYWGQGSQVTVSS,low polyreactivity
4,QVQLVESGGGLVQAGGSLRLSCAASGTTFGINAMGWYRQAPGKERELVASITRRGGSTYYADSVKGRFTISRDNAKNTVYLQMNSLKPEDTAVYYCNKTYRYGTPLYDYWGQGTQVTVSS,high polyreactivity
5,QVQLVESGGGLVQAGGSLRLSCAASGTTFGPNAMGWYRQAPGTERELVAAIRWRGGSTYYADSVQGRFTIARDNAKNTVYLQMNSLKPEDTAVYYCADTRYSWHNRVSRRHRYDYWGQGTQVTVSS,high polyreactivity
6,QVQLVESGGGLVQAGGSLRLSCAASGTTFGQYAKGWYRQAPGKERDLLAAISSGGRTNYADSVKGRFTISRDNAKNTVYLQMNCVKPEDSAVYDCAARYYFPFRRFRRMDYWGQGTQVTVSS,high polyreactivity
7,QVQLVESGGGLVQAGGSLRLSCAASGTTFGRYAMGWYRQAPGKERELVAAITRSGGRTYYADSVKERFTISRDNAKNTVYLQMNSLIPEDTAVYYCAAVGNLYYTSLWQYDYWGQGTQVTVSS,high polyreactivity
8,QVQLVESGGGLVQAGGSLRLSCAASGTTFKTYCMGRYRQAPGKERELVAAISRRGGSTSYADSVKGRFTISRDNAKNTVYLQMNSLKPEDTAVYYCNVLGWWHVWGYDYWGQGTQVTVSS,high polyreactivity
9,QVQLVESGGGLVQAGGSLRLSCAASGTTFTDNAMGWYRQAPGKERELVAAITSGSSTNYADSVKGRFTISRDNAKNTVSLQMNSLKPEDTAVYYCATGQVPQYSTGDYWGQGTQVTVSS,low polyreactivity
10,QVQLVESGGGLVQAGGSLRLSCAASGTTLPYYAMGWYRQAPGKERELVAAITSSGGDTYYADSVKGRFTISRDNAKNTVYLQMNSLKPEDTAVYYCAKSYSARSTVRKLFYFAYDYWGQGTQVTVSS,low polyreactivity
11,QVQLVESGGGLVQAGGSLRLSCAASGTYFNAMGWYRQAPGKERELVAAISLSGGRTYYADSVKGRFTISRDNAKNTVYLQMNSLKPEDTAVYYCAASNRGATRRQVNYWGQGTQVTVSS,high polyreactivity
12,QVQLVESGGGLVQAGGSLRLSCAASGVIFGPNAMGWYRQAPGKERELVAAIRWSGSRTYYADSVKGRFTISRDNAKNTVYLQMNSLKPEDTAVYYCAATGGLNGALSRLEYWGQGTQVTVSS,high polyreactivity
13,QVQLVESGGGLVQAGGSLRLSCAASGVIFGYYAMGWDRQAPGKERELVAAITLSGSRTYYADSVTGRFTISRDTAKNTVDLQMNSLKPEDTAVYYCAKRRYWYYRSRDWFVSGDYWGQGTQVTVSS,low polyreactivity
14,QVQLVESGGGLVQAGGSLRLSCAASGVILSAYAMGLYRQAPAKERELVAAITGSGGRTYYADSVKGRFTISRDNAKNTVYFQMNSLKPEDTAVNYCAARYTYVGSYTYNSWGQGPQVTVSS,high polyreactivity
15,QVQLVESGGGLVQAGGSLRLSCAASGVNAMGWYRQAPGKEREFVAAITSIGGSTYYADSVKGRFTISRDNAKNTVYLQLNSLKPEDTAVYDCNTDRGPVKVSPLYESWGQGTQVTVSS,low polyreactivity
16,QVQLVESGGGLVQAGGSLRLSCAASGVTFTYYAMGWYRQAPGKERELVAAISKSGGRTYYADSVKGRFTISRDNAKNTVYLQMNSLKPEDTAVYYCAARITREGYYWGQGTQVTVSS,high polyreactivity
17,QVQLVESGGGLVQAGGSLRLSCAASGVTFYYYAMGWYRQAPGKERELVASITSTDSTTYADSVKGRFTISRDNAKNTVYLQMNRLKPEDTAVYYCNRLYNHWYGGLDYWGQGTQVTVSS,high polyreactivity
18,QVQLVESGGGLVQAGGSLRLSCAASGYIFAGNAMGWYRQAPGKERELVAVITRGGRTYYADSVKGRFTISRDNAKNTVYLQMNSLKPEDTAVYYCAARYPYRGWGQGTQVTVSS,high polyreactivity
19,QVQLVESGGGLVQAGGSLRLSCAASGYIFANNAMGWYRQAPGKERELVAAISSSGGRTYYADSVKGRFTISRDNAKNTVYLQMNSLKPEDTAVYYCNKYGTALWRYYYWGQGTQVTVSS,high polyreactivity
20,QVQLVESGGGLVQAGGSLRLSCAASGYIFARYAMGWYRQAPGTERELVARITTGDSTYYADSVKGRFTISRDNAKNTVYLQMNSLKPEDTAVYYCAADDNVSVVGLYYWGQGTQVTVSS,low polyreactivity
21,QVQLVESGGGLVQAGGSLRLSCAASGYIFDDNAMGWYRQAPGKERELVATNYADSVKGRFTISRDNAKNTVYLQMNSLKPEDTAVFYCAKAGYRSEFEYWGQGTQVTVSS,low polyreactivity

row,Sequence,polyreactivity (PSR sort gate)
1,QVQLVESGGGLVQAGGSLRLSCAASGYIFDLNAMGWSRQAPGKERELVAANSTGGGTYYADSVKGRFTISRDNAKNTVYLQMNILKPEDTAVYYCAADWGYWYAEYDYWGQGTQVTVSS,low polyreactivity
2,QVQLVESGGGLVQAGGSLRLSCAASGYIFDRYAMGWYRQAPGKERELVAAISGRGGSTYYADSVKGRFTISRDNAKNTVYLQMNSLKPEETAVYYCARDVYVRNGQRARYDSWGQGTQVTVSS,high polyreactivity
3,QVQLVESGGGLVQAGGSLRLSCAASGYIFDVNTMGWYRQAPGKERELFAAITSGGTTYYADSVKGRFTISRDNAKNTVYLQMNSLKPEDTAVYYCAARRYPFEYDYWGQGTQVTVSS,high polyreactivity
4,QVQLVESGGGLVQAGGSLRLSCAASGYIFERNALGWYRQAPGKERELVAAINWRTGRTYYADSVKGRFTISRDYAKYNVYLQMNSLKPEDTAVYYCAKEHSTYWAQPTYSYDNWGQGTQVTVSS,low polyreactivity
5,QVQLVESGGGLVQAGGSLRLSCAASGYIFERNAMGWYRQAPGKERELVAAITDDGDDTYYADSVKGRFTISRDNAKNTVYLQMNSLKAEDTAVYYCAKDLYYGDYYYWGQGTQVTVSS,low polyreactivity
6,QVQLVESGGGLVQAGGSLRLSCAASGYIFEVNAMGWYRQAPGKERELVATIDTSSGSTNYADSVKGRFTISRDNAKNTVYLQMNSLKPEDTAVYYCAADDETVFLQDDYWGQGTQVTVSS,low polyreactivity
7,QVQLVESGGGLVQAGGSLRLSCAASGYIFFFYAMGWYRQAPGKERELVASITYRGGSTYYADSVKGRFTISRDNSKNTVYLQMNSLKPEDTAVYYCAADVRASRFDYWGQGTQVTVSS,low polyreactivity
8,QVQLVESGGGLVQAGGSLRLSCAASGYIFFGNAMGWYRQAPGKERELVAAIRWRGTSTYYADSVKGRFTISRDNAKNTVYLQMNSLKPEDTAVYYCARLRTVGGYSKYDYWGQGSQVTVSS,low polyreactivity
9,QVQLVESGGGLVQAGGSLRLSCAASGYIFGGNTLGWYRQAPGKERELVAAISYSGTSTYYADSVKGRFTISRDNAKNTVYLQMNSLKPEDTAVYYCAARERWYGSYYWGQGTQVTVSS,high polyreactivity
10,QVQLVESGGGLVQAGGSLRLSCAASGYIFGHYAMGWYRQAPGKERELVAGITWRGGSTYYADSVKGRFTISRDNAKNTVYLQMNSLKPEDTAVYYCNAQYTQRWPYGLYYEMDYWGQGTQVTVSS,low polyreactivity
11,QVQLVESGGGLVQAGGSLRLSCAASGYIFGHYTMGWYRQAPGKERELVAGISSGGITYYADSVKGRFTISRDNAKNSDYLQMNSLKPEDTAVYYCAAYWRRRLDYYYWGQGTQVTVSS,high polyreactivity
12,QVQLVESGGGLVQAGGSLRLSCAASGYIFGNYAMGWYRQAPGKERELVAAISKSGVTTYYADSVKGRFTISRDNAKNTVYLQMNSLKPEDTAVYYCNARSWRPINARYNEYDYWGQGTQVTVSS,low polyreactivity
13,QVQLVESGGGLVQAGGSLRLSCAASGYIFGVYAMGWYRQAPGKERELVAVITVTGGSTYYADSVKGRFTISRDNAKNTVYLQMNSLKPEDTAVYYCAARGYGNLARVYHGYGYWGQGTQVTVSS,high polyreactivity
14,QVQLVESGGGLVQAGGSLRLSCAASGYIFGYNAMGWYRQAAGQERELVAAITYSGGNTYYADSVKGRFTISRDNANNTVYLQMNSLKPEDTAVYYCAADFLYGAEGNEYWGQGTQVTVSS,high polyreactivity
15,QVQLVESGGGLVQAGGSLRLSCAASGYIFGYYVMGWYRQAPGKERELVAAITGRGGSTYYADSVKGRFTISRDNAKNTVYLQMISLKPEDTAVYDCAADATSYPYDPWHLYEIWEYYYWGQGTQVTVSS,low polyreactivity
16,QVQLVESGGGLVQAGGSLRLSCAASGYIFHLYGMGWYRQAPGKERELVARISYRGGSTYYADSVKGRFTISRDNAKNTVYLQMNSLKPEDTAVYYCAKDYYKHYYWGQGTQVTVSS,high polyreactivity
17,QVQLVESGGGLVQAGGSLRLSCAASGYIFHRYAMGWYRQAPGKERELVAAITWTGARTYYADSVKGRFTISRDNAKNTVYLQMNSLKPEDTAVYYAAPASYSFAKSGYWGQGTQVTVSS,high polyreactivity
18,QVQLVESGGGLVQAGGSLRLSCAASGYIFIFYAMGWYRQAPGKDRELVAAITDSGGSTYYADSVKGRFTISRDNAQNTVYLQKNSLKPEDTAVYYCADPYYFYRDRYRLDYWGQGTQVTVSS,low polyreactivity
19,QVQLVESGGGLVQAGGSLRLSCAASGYIFKNYAMGWYRQAPGKERELVAAITRRGASTYYADSVKGRFTITRDNAKNTVYLQMNSLKPEDTAVYYCAAYPWPPGEYDYWGQGTQVTVSS,low polyreactivity
20,QVQLVESGGGLVQAGGSLRLSCAASGYIFKPNTMGWYRQAPGKERELVAAITRGGRTKYADSVKGRFTISRDNAKNTVYLQMNSLKPEDTAVYYCAAALPVQYRDMYSWGQGTQVTVSS,high polyreactivity
